From publication PMC12609908

How the values were obtained:
[1] = target: T1, CutR (Mycobacterium sp. strain JC1) (UniProt D5G1X9); test: EMSA; details: 50 mM Tris-HCl pH 8.0, 100 mM NaCl, 40% glycerol, 5 mM DTT, 2 mM EDTA, 4 °C 1 h; 10% native PAGE in 0.5x TBE at 4 °C
T1 sequence: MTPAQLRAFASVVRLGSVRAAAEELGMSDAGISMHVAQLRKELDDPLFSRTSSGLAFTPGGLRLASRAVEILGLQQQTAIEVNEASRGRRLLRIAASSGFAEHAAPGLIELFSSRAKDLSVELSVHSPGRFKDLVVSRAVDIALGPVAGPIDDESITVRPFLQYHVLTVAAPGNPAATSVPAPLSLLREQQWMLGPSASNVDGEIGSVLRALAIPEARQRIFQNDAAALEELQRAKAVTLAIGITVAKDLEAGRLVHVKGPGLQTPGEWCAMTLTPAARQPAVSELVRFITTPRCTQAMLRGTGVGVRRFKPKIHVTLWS

[2] = target: CutR, LysR-type transcriptional regulator from Mycobacterium sp. strain JC1 (native protein) (Mycobacterium sp. strain JC1); test: SEC; Superdex G-75 column, 20 mM Tris-HCl pH 7.5, 500 mM NaCl, 5 mM beta-mercaptoethanol; size standards conalbumin, ovalbumin, carbonic anhydrase, ribonuclease A, aprotinin

Row | Substance | binding [1] | stoichiometry N [2]
1 | ACCCCGAGTTAAGTGATTCCTTAACTCGCTATTGACGCCATCGCGGCGGCAACGGAAACTAGCCACTTCAGCCACGACGTTGTGAGGATGATCACATGCAA (double strand) [IR1 to CRP motif fragment (101 bp)] | binds | 
2 | CutR, LysR-type transcriptional regulator from Mycobacterium sp. strain JC1 (native protein) (natural protein) |  | 2
